Measured values from paper PMC4493999.

Molecular target: anaphase-promoting complex/cyclosome (APC/C) complex (human (endogenous in HeLa)) (UniProt P30260)
Test: co-IP

UniProt P30260, sequence (P30260 whole entry, looked up, one chain of several): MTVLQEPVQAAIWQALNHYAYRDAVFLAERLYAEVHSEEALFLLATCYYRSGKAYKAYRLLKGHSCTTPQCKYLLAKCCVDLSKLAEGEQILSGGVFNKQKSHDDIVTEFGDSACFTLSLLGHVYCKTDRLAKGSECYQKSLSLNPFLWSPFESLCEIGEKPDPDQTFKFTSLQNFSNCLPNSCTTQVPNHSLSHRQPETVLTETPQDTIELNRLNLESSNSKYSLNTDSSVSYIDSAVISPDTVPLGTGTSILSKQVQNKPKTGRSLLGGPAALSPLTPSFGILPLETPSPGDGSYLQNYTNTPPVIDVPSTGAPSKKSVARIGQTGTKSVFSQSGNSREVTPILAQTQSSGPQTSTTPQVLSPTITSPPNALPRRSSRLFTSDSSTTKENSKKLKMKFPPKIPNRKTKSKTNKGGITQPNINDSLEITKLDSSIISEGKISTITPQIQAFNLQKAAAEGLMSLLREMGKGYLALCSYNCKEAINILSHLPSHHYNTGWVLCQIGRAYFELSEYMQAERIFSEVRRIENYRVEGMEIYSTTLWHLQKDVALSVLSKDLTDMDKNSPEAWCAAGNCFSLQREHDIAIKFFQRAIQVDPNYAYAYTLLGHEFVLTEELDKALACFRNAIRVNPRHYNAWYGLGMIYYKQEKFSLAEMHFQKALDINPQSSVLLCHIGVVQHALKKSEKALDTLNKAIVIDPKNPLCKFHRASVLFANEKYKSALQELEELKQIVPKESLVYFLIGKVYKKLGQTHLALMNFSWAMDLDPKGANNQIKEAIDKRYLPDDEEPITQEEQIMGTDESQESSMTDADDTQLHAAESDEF

amount coprecipitated, percent of that of Cdh1 S40A: 20%
amount coprecipitated, percent of that of wild-type Cdh1: 30%
Substance: HA-tagged human Cdh1 S40D (from UniProt Q9UM11 1-496) (natural protein)
